Key:
Conditions in all cases: both partners purified
His-LC3A = His-LC3A (human, UniProt Q9H492 1-121); assay: ITC; 0.6 mM peptide titrated into 0.06 mM His-LC3/GABARAP protein in 20 steps at 25 °C; 50 mM Tris pH 7.0, 25 mM NaCl; one-site binding model
His-GABARAPL1 = His-GABARAPL1 (human, UniProt Q9H0R8 1-117); assay: as above
His-GABARAPL2 = His-GABARAPL2 (human, UniProt P60520 1-117); assay: as above
His-GABARAP = His-GABARAP (human, UniProt O95166 1-117); assay: as above
hEPG5^Q336R = molecular target: T1, hEPG5^Q336R (human, UniProt Q9HCE0 1-2579, Q336R); assay: pull-down; GST pull-down: purified GST-LC3A/B/C or GST-GABARAP/L1/L2 bait (200–240 µg) on glutathione resin, purified His-FLAG-hEPG5 or mutant (25–30 µg) as prey; 50 mM Tris pH 8.0, 150 mM NaCl, 5% glycerol, 0.01% Tween20, 0.5 mM DTT, 4 °C; anti-FLAG fluorescence western blot
T1 construct: human EPG5, full length, with the Vici syndrome missense mutation Q336R (c.1007A>G); also called Gln336Arg; Vici syndrome mutant

hEPG5^F794A = molecular target: T2, hEPG5^F794A (human, UniProt Q9HCE0 1-2579, F794A); assay: as above
T2 construct: also called third LIR motif mutant

hEPG5^W567A = molecular target: T3, hEPG5^W567A (human, UniProt Q9HCE0 1-2579, W567A); assay: as above
T3 construct: also called LIR2 mutant

hEPG5^Δ1–548 = molecular target: T4, hEPG5^Δ1–548 (human, UniProt Q9HCE0 549-2579); assay: as above
T4 construct: also called truncated hEPG5 devoid of the region between the N-terminus and the two LIR motifs

hEPG5^Δ1770–2579 = molecular target: T5, hEPG5^Δ1770–2579 (human, UniProt Q9HCE0 1-1769); assay: as above
T5 construct: also called truncated hEPG5 lacking the entire C-terminal region

[1] = molecular target: T6, His-FLAG-hEPG5 (human EPG5, full length, wild type) (human, UniProt Q9HCE0 1-2579); assay: pull-down; co-purification: His-FLAG-hEPG5 bound to Ni-NTA resin, GST-GABARAP applied, washed, eluted with imidazole; 50 mM Na phosphate pH 7.4, 150 mM NaCl, 0.01% TWEEN 20, 5% glycerol; complex seen on SDS-PAGE and by negative stain EM 2D class averages
T6 construct: His-FLAG tag from a modified pFastBacHTB; also called hEPG5^WT; ectopic P-granules autophagy protein 5

His-LC3B = His-LC3B (human, UniProt Q9GZQ8 1-120); assay: ITC; 0.6 mM peptide titrated into 0.06 mM His-LC3/GABARAP protein in 20 steps at 25 °C; 50 mM Tris pH 7.0, 25 mM NaCl; one-site binding model

Sequence of His-GABARAPL2 (P60520 whole entry): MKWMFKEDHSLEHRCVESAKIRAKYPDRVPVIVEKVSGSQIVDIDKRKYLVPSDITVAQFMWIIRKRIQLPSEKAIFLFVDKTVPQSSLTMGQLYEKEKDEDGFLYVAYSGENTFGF
T2 sequence (Q9HCE0 whole entry F794A): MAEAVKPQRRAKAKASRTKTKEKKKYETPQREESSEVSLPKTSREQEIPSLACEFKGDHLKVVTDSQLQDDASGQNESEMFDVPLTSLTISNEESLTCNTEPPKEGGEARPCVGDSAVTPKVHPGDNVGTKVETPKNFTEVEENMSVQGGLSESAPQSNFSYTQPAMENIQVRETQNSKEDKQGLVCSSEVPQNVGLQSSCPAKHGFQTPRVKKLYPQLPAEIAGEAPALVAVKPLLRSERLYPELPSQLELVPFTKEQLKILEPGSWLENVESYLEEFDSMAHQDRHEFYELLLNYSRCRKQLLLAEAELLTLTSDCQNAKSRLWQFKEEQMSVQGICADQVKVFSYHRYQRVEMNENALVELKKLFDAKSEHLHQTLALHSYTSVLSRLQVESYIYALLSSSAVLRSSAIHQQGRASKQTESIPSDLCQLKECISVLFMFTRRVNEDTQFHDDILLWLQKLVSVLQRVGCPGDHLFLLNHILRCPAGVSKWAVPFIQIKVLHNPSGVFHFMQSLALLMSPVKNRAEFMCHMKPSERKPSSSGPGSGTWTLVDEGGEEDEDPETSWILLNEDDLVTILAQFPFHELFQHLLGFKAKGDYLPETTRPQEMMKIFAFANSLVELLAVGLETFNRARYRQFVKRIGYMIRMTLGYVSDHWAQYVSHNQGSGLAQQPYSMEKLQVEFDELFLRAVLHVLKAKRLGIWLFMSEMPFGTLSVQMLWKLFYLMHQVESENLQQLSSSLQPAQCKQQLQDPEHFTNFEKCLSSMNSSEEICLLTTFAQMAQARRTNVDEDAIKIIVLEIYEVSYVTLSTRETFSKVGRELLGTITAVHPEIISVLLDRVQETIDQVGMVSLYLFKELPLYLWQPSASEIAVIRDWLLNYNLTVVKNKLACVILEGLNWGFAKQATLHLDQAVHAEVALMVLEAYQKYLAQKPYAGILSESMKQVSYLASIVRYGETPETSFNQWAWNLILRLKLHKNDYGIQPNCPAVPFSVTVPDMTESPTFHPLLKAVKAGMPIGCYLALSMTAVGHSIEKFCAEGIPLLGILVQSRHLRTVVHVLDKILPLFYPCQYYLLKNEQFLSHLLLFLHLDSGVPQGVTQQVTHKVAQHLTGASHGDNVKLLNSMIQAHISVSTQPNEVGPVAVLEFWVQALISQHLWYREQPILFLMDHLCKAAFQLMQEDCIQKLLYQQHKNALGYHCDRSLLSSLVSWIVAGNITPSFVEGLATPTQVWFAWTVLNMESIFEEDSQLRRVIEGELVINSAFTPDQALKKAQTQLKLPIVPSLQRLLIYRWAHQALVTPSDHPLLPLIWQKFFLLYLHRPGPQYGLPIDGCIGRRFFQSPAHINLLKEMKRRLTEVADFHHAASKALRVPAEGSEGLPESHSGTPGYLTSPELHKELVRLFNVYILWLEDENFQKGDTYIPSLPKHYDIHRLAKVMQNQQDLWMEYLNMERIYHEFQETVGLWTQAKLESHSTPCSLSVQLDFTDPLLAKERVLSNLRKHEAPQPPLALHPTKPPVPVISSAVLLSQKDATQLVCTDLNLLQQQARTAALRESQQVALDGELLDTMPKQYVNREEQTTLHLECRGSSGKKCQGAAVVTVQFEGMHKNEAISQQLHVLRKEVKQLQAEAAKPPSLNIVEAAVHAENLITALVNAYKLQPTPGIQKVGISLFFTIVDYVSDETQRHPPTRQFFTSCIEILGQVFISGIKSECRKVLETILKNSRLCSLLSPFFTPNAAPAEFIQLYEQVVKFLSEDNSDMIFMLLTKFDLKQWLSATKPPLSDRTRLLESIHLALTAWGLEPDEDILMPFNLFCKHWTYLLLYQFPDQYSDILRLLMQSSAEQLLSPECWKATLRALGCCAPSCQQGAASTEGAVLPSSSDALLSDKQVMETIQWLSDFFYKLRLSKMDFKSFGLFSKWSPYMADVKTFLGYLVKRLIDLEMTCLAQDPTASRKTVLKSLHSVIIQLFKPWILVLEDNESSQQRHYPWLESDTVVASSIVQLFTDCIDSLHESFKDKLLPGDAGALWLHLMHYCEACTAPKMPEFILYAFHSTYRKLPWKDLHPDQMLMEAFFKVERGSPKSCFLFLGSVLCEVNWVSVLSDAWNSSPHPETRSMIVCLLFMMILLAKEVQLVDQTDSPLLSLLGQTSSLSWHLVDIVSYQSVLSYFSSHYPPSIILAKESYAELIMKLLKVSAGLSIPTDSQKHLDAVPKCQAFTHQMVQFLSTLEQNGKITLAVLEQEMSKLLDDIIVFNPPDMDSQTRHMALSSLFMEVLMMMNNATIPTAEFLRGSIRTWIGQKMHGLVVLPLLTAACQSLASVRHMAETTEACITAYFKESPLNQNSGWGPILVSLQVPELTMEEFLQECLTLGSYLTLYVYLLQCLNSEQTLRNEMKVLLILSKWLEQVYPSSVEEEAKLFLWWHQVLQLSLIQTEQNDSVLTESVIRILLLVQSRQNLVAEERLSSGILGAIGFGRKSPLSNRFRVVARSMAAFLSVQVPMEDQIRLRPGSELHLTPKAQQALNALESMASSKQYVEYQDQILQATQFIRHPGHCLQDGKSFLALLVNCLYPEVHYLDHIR
Sequence of His-GABARAPL1 (Q9H0R8 whole entry): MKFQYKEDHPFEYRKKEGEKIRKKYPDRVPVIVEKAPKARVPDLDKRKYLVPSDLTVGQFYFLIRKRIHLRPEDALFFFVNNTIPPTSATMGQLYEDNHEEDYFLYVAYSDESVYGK
T1 sequence (Q9HCE0 whole entry Q336R): as the sequence (Q9HCE0 whole entry F794A) above, with Q336R, A794F counted along it
T3 sequence (Q9HCE0 whole entry W567A): as the sequence (Q9HCE0 whole entry F794A) above, with W567A, A794F counted along it
T4 sequence (Q9HCE0 549-2579, stated change not applied): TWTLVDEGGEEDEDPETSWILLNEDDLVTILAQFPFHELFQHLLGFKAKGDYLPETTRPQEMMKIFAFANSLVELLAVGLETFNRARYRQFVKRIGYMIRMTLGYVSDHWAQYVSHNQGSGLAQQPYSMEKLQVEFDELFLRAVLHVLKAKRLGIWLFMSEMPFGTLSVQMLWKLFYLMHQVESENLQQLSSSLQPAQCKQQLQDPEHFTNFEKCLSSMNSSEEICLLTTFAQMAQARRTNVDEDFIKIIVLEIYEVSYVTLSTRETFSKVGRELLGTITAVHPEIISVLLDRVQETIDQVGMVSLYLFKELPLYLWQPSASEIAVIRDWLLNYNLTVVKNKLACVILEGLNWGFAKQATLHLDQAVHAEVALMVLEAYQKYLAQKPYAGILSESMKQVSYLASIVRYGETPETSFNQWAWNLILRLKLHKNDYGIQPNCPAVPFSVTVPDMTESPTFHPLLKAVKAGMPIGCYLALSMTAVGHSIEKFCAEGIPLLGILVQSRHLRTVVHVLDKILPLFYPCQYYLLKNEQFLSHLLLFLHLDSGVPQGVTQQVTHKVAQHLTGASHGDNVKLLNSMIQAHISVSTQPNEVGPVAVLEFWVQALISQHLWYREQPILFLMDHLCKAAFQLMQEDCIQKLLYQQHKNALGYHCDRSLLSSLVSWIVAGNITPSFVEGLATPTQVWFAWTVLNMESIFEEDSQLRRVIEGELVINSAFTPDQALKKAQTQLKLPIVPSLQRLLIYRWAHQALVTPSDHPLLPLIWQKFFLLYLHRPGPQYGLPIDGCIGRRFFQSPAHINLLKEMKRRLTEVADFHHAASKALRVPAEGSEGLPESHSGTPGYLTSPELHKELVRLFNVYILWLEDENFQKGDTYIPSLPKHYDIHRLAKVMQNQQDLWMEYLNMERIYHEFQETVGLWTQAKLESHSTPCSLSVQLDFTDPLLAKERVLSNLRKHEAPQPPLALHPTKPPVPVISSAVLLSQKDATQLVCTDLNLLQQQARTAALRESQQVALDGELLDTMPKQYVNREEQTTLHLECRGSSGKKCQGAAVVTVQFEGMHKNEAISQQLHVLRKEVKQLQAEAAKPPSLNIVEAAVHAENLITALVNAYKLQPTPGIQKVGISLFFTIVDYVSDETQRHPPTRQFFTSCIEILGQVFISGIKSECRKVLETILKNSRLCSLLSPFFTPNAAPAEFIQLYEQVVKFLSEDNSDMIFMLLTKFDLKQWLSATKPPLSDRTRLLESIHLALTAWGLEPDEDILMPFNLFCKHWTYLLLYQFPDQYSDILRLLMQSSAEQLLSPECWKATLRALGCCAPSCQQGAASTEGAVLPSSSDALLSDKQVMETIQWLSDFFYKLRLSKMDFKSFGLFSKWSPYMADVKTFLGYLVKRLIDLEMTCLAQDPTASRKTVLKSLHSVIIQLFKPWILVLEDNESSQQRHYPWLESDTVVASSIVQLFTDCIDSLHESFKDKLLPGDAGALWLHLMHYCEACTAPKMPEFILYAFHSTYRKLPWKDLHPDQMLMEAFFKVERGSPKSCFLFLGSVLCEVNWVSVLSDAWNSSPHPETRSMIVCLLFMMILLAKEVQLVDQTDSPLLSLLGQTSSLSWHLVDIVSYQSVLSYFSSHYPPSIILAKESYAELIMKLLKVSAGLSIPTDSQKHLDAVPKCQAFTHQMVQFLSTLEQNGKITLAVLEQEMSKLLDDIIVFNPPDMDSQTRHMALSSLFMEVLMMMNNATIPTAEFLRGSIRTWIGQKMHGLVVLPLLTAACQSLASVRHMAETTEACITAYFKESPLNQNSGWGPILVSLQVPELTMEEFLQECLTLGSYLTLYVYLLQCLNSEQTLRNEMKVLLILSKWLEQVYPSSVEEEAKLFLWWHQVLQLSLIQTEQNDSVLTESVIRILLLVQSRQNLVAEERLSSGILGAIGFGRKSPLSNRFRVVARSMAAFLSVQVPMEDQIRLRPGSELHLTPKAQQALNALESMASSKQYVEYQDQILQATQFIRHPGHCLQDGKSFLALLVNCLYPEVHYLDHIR
T6 sequence (Q9HCE0 whole entry): as the sequence (Q9HCE0 whole entry F794A) above, with A794F counted along it

| Binder | fold KD relative to LIR1-GABARAP (His-LC3A) | Kd (His-GABARAPL1) | Kd (His-GABARAPL2) | Kd (His-GABARAP) | binding result (hEPG5^Q336R) | binding result (hEPG5^F794A) | binding result (hEPG5^W567A) | binding result (hEPG5^Δ1–548) | binding result (hEPG5^Δ1770–2579) | binding result [1] | Kd (His-LC3A) | Kd (His-LC3B) |
| --- | --- | --- | --- | --- | --- | --- | --- | --- | --- | --- | --- | --- |
| GSGTWTLVDEG (human EPG5 residues 546-556, holding the LIR1 motif 550WTLV553; source: synthetic peptide (LifeTein)) [hEPG5-LIR1 peptide] | 3 times | 8.54 µM | 11.8 µM | 7.47 µM |  |  |  |  |  |  |  |  |
| GST-GABARAP (natural protein, human, UniProt O95166 1-117, looked up) MKFVYKEEHPFEKRRSEGEKIRKKYPDRVPVIVEKAPKARIGDLDKKKYLVPSDLTVGQFYFLIRKRIHLRAEDALFFFVNNVIPPTSATMGQLYQEHHEEDFFLYIAYSDESVYGL |  |  |  |  | binds | binds | binds | binds | binds | binds |  |  |
| DEDPETSWILLN (source: synthetic peptide (GenScript)) [hEPG5-LIR2 peptide] |  |  | 0.68 µM | 0.16 µM |  |  |  |  |  |  | 1.75 µM | 4.07 µM |
